Experimental data: patent US20160200782A1 (MOERAE MATRIX, published 2016)

Assays:
Assay in all cases: cell-based or functional assay
ALK(h) = ALK(h) (human, UniProt Q9UM73 1058-1620, limits assumed)
CSK(h) = CSK(h) (human, UniProt P41240 1-450)
MST1(h) = biological target: T1, MST1(h) (human, UniProt Q13043 1-487, limits assumed)
T1 sequence (looked up): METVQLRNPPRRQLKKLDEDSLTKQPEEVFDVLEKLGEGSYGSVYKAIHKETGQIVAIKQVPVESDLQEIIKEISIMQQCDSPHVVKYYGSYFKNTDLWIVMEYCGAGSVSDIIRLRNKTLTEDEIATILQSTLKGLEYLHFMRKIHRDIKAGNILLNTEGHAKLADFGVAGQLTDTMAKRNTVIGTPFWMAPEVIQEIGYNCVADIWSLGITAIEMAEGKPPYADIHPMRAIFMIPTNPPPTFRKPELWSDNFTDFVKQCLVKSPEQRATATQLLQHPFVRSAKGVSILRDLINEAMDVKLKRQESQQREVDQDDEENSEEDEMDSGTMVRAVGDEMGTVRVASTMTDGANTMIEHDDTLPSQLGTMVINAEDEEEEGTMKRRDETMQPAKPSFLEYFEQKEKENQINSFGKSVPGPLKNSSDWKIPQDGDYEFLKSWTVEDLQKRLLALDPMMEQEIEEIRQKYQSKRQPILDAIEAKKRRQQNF

JNK1α1(h) = JNK1α1(h) (human, UniProt P45983-2 1-384)
Chain of JNK1α1(h) (P45983 other isoform, or with tags, fused parts or gaps limits assumed): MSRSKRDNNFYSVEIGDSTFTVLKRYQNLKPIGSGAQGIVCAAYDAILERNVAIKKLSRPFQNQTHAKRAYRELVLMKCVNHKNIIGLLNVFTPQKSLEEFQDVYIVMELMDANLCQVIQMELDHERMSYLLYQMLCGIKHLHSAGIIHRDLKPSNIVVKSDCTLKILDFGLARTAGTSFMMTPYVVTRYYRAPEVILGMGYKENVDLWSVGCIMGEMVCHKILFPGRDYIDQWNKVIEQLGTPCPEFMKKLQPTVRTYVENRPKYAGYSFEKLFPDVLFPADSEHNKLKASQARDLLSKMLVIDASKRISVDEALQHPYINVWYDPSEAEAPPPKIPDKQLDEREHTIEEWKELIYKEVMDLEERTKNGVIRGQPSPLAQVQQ

ULK3(h) = biological target: T2, ULK3(h) (human, UniProt Q6PHR2 1-472, limits assumed)
T2 sequence (looked up): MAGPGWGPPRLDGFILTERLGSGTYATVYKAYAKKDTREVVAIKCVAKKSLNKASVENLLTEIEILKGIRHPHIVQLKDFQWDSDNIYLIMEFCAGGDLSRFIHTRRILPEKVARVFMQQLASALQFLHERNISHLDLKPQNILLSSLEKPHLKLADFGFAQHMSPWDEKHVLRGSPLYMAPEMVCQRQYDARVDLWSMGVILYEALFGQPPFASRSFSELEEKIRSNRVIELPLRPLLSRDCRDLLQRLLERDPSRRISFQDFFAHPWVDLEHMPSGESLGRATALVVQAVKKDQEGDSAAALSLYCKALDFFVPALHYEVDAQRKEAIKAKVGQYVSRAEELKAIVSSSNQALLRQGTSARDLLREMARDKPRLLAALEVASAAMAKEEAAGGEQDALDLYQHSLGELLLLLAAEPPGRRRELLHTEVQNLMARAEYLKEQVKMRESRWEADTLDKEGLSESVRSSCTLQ

cKit(V654A)(h) = cKit(V654A)(h) (human, UniProt P10721 544-976, limits assumed)
Chain of cKit(V654A)(h) (P10721 544-976 V654A limits assumed): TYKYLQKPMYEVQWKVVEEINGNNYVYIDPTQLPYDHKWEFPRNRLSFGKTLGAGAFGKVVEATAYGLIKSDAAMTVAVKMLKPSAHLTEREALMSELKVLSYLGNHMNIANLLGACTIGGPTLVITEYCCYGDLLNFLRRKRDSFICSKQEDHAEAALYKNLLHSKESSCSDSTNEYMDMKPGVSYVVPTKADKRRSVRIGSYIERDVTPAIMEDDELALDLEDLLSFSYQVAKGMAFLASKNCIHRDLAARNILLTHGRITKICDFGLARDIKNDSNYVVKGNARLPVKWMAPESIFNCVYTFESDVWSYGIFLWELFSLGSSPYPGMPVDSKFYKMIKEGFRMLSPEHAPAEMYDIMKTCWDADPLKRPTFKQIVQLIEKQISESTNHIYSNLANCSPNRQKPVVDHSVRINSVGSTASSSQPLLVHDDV

Mer(h) = biological target: T3, Mer(h) (human, UniProt Q12866 578-872, limits assumed)
T3 sequence (looked up): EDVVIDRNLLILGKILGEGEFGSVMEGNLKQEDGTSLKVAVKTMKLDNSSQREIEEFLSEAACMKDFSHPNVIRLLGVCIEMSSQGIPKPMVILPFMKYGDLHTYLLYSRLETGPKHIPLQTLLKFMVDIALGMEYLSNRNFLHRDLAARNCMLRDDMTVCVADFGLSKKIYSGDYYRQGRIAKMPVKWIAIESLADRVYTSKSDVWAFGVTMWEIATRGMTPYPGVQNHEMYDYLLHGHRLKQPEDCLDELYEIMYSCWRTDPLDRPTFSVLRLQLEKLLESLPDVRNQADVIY

p70S6K(h) = p70S6K(h) (human, UniProt P23443 1-421, limits assumed)
Chain of p70S6K(h) (P23443 1-421 limits assumed): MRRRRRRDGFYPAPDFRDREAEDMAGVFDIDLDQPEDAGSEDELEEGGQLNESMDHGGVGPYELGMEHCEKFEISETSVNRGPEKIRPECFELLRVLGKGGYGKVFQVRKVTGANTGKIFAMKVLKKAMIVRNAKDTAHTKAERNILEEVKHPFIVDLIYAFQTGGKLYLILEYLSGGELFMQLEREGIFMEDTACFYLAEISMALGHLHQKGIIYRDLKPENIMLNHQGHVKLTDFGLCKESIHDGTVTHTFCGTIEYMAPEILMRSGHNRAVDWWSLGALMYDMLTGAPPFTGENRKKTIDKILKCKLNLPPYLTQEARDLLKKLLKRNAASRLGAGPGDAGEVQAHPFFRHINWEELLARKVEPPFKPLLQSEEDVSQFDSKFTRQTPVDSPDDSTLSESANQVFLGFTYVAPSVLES

PDGFRα(D842V)(h) = PDGFRα(D842V)(h) (human, UniProt P16234 550-1089, limits assumed)
Chain of PDGFRα(D842V)(h) (P16234 550-1089 D842V limits assumed): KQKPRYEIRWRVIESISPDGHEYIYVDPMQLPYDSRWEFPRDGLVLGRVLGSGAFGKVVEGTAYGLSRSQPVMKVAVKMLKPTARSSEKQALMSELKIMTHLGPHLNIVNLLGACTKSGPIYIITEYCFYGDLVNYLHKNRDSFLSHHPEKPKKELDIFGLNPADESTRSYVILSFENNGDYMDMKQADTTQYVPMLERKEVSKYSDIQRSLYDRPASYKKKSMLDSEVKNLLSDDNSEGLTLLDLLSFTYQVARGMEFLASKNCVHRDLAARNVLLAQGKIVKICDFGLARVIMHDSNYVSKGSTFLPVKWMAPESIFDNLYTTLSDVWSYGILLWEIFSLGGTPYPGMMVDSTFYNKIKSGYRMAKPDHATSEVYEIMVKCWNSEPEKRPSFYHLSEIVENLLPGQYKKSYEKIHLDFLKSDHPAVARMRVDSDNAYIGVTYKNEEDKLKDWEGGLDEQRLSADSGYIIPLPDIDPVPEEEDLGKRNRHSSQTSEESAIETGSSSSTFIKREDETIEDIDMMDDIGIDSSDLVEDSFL

EphA3(h) = biological target: T4, EphA3(h) (human, UniProt P29320 566-983, limits assumed)
T4 sequence (looked up): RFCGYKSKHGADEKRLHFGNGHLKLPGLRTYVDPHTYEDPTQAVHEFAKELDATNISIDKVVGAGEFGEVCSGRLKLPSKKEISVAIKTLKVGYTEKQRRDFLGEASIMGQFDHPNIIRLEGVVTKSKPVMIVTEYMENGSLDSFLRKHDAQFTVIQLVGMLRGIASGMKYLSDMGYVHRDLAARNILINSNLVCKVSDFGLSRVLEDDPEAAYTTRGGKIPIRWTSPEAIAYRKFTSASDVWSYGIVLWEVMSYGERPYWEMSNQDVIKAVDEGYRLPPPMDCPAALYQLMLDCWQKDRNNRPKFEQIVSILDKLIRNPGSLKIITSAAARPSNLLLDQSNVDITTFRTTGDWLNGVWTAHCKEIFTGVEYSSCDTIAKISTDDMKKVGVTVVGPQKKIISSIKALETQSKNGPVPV

PTK5(h) = PTK5(h) (human, UniProt P42685 1-505, limits assumed)
Chain of PTK5(h) (P42685 whole entry): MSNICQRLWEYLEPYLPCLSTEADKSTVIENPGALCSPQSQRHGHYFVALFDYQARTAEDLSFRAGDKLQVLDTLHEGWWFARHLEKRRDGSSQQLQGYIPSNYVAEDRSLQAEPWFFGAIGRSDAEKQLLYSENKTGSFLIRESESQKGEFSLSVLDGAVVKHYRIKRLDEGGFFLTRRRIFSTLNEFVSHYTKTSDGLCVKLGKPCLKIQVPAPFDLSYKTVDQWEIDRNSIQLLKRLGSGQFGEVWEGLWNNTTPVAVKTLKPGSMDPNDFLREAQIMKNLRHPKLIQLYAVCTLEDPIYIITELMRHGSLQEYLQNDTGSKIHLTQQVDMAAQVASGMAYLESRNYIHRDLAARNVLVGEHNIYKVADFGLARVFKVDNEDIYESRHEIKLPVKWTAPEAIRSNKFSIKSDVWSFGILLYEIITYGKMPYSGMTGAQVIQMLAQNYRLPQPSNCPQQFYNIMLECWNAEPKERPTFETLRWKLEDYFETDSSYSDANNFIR

Flt4(h) = Flt4(h) (human, UniProt P35916 800-1363, limits assumed)
Chain of Flt4(h) (P35916 800-1363 limits assumed): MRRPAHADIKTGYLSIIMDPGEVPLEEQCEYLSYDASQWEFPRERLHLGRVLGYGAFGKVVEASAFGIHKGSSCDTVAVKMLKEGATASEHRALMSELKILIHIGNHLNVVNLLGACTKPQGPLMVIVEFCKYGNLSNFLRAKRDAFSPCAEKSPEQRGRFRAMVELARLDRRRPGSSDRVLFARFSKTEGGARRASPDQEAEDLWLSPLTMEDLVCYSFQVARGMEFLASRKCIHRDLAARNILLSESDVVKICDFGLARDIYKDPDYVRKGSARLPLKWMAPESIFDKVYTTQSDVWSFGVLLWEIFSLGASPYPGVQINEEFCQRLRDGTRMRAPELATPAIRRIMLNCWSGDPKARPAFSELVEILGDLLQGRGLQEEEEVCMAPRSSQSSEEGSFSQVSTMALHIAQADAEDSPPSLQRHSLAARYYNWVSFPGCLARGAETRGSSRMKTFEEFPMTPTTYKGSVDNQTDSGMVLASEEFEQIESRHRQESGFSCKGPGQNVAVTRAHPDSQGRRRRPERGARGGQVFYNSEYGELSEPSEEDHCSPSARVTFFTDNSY

Met(h) = Met(h) (human, UniProt P08581 956-1390, limits assumed)
Chain of Met(h) (P08581 956-1390 limits assumed): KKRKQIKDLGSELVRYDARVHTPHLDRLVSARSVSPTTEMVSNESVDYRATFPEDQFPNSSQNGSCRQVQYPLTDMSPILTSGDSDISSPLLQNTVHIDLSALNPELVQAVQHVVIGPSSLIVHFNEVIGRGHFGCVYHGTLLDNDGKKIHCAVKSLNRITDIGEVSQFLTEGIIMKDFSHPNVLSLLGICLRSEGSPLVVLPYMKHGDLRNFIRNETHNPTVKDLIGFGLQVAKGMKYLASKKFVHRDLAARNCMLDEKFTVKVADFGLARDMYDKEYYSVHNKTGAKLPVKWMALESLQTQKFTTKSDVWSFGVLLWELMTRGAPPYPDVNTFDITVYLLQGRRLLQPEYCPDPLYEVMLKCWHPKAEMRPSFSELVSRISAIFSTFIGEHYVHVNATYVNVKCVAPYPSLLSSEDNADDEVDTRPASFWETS

LKB1(h) = biological target: T5, LKB1(h) (human, UniProt Q15831 1-433, limits assumed)
T5 sequence (looked up): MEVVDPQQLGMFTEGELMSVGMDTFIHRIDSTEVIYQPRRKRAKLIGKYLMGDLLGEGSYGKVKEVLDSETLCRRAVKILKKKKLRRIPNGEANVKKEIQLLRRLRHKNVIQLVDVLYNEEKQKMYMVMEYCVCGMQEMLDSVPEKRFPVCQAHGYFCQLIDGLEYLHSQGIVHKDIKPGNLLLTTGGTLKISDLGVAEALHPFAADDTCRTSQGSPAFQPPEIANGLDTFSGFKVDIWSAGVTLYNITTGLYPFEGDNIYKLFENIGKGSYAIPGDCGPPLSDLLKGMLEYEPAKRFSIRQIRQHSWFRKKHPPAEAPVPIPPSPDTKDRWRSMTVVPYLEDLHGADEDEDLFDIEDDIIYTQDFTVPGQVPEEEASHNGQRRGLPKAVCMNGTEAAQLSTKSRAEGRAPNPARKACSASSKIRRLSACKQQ

cKit(D816V)(h) = cKit(D816V)(h) (human, UniProt P10721 544-976, limits assumed)
Chain of cKit(D816V)(h) (P10721 544-976 D816V limits assumed): as the sequence (P10721 544-976 V654A limits assumed) above, with A111V, D273V counted along it

Chain of CSK(h) (P41240 whole entry): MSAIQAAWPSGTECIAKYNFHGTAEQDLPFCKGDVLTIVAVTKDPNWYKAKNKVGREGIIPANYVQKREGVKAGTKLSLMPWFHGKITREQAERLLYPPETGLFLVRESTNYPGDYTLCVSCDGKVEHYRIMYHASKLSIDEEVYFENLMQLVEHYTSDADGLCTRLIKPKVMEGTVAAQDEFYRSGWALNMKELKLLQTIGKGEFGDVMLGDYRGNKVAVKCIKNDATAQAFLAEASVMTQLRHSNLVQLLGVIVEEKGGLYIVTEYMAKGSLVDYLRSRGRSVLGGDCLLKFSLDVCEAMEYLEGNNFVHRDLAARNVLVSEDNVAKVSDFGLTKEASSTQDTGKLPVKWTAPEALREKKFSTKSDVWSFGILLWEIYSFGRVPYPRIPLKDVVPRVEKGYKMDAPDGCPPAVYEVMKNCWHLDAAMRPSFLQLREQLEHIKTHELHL
Chain of ALK(h) (Q9UM73 1058-1620 limits assumed): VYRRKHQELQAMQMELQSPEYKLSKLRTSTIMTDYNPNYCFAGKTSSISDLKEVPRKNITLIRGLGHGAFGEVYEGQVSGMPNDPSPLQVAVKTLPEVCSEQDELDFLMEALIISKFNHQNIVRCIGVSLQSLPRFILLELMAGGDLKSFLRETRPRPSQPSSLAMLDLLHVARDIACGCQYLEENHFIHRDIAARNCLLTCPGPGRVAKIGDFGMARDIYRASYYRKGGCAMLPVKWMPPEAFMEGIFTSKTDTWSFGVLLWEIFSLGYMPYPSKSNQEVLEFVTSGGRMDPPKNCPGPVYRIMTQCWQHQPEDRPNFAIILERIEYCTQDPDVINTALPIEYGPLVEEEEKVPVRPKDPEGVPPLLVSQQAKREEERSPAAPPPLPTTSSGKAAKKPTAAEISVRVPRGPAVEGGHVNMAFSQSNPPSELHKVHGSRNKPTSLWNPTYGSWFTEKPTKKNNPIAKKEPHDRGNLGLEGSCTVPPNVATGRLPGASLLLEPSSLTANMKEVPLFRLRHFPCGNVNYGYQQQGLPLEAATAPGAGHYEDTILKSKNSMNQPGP

| Binder | % activity (ALK(h)) [%] | % activity (CSK(h)) [%] | % activity (MST1(h)) [%] | % activity (JNK1α1(h)) [%] | % activity (ULK3(h)) [%] | % activity (cKit(V654A)(h)) [%] | % activity (Mer(h)) [%] | % activity (p70S6K(h)) [%] | % activity (PDGFRα(D842V)(h)) [%] | % activity (EphA3(h)) [%] | % activity (PTK5(h)) [%] | % activity (Flt4(h)) [%] | % activity (Met(h)) [%] | % activity (LKB1(h)) [%] | % activity (cKit(D816V)(h)) [%] |
| --- | --- | --- | --- | --- | --- | --- | --- | --- | --- | --- | --- | --- | --- | --- | --- |
| KAFAKLAARLYRKALARQLGVAA [MMI-0400] | 16 | 16 | 6 | 98 | 147 | 150 | 50 | 33 | 118 | 12 | 129 | 89 | 62 | 89 | 35 |
| FAKLAARLYRKALARQLGVAA [MMI-0300] | 19 | 49 | 14 | 97 | 167 | 134 | 52 | 35 | 114 | 6 | 132 | 83 | 65 | 101 | 60 |
